Measured values from publication PMC8751750, “Effect of using different co-ligands during ^99mTc-labeling of J18 peptide on SK-MES-1 cell binding and tumor targeting” (Iranian Journal of Basic Medical Sciences, 2021).
Peptide text beside a SMILES is read from it.

Assay: Biodistribution in normal mice
Assay type: in vivo
Settings: i.v. 1 μg in 100 μl (18.5 MBq), mean±SD, n=4; for Intestine uptake (with contents): normal female NMRI mice
Method: All animal investigations were approved by Mazandaran University of Medical Sciences Research and Ethical Committee in Sari, Iran. Twelve normal female NMRI mice (20–30 g) were randomly divided into three groups of four. 1 μg of (^99mTc) Tc –HYNIC–J18 peptide in 100 μl of buffer (18.5 MBq) was injected into the tail vein. All animals were sacrificed one, four, and twenty-four hours following radiolabeled peptide injection. Mice were euthanized with an appropriate dose of ketamine/xylazine (Sigma, USA) diluted with sterile water (1:3 v/v). Following deep anesthesia, blood was extracted by heart puncture with a 1-mL syringe washed with diluted heparin. Blood, liver, spleen, salivary gland, stomach, kidney, muscle, and bone samples were dissected and weighed, and radioactivity was measured. Except for the intestines, which were computed as a percentage of the injected dose per gram tissue (percent ID/g), the tissue uptake data was calculated as a percentage of the administered dose per total sample.

SMILES: CC(C)C[C@H](NC(=O)[C@H](CO)NC(=O)[C@H](CCCNC(=N)N)NC(=O)[C@H](CO)NC(=O)[C@H](CO)NC(=O)[C@H](CO)NC(=O)c1ccc(NN)nc1)C(=O)N[C@@H](Cc1c[nH]c2ccccc12)C(=O)N[C@@H](CO)C(=O)N[C@@H](CC(=O)O)C(=O)N[C@@H](Cc1ccccc1)C(=O)N[C@@H](Cc1ccc(O)cc1)C(=O)N[C@@H](C)C(=O)N[C@@H](CO)C(=O)N[C@@H](C)C(=O)N[C@@H](CO)C(=O)N[C@@H](CCCNC(=N)N)C(=O)NCC(=O)N1CCC[C@H]1C(=O)O [Peptide 1, (^99mTc)Tc-HYNIC-(Ser)3-J18 with tricine, metal not drawn] (HELM PEPTIDE1{[NNc1ccc(C(=O)[*:2])cn1].S.S.S.R.S.L.W.S.D.F.Y.A.S.A.S.R.G.P}$$$$V2.0; C-terminus assumed)
- Intestine uptake (with contents) (4 hr): 5.85±2.14 percentage of injected dose per whole sample
- Intestine uptake (with contents) (24 hr): 1.11±0.38 percentage of injected dose per whole sample
- tissue uptake at 4 h (female, NMRI, mouse, spleen, iv, 1 ug, total radioactivity, 4 hr): 2.24 ± 1.81 %ID/g
